The target in the experiment is complex of FGFR1c and β-Klotho (recombinant proteins) (UniProt P11362). In words: AlphaScreen competition. The note with it: ligand. Background: Bead proximity is the source of the signal in Alpha formats.

Drawing on patent publication US20110150901A1, this text covers IC50 for 1 substance.

Chain of complex of FGFR1c and β-Klotho (recombinant proteins) (P11362 other isoform, or with tags, fused parts or gaps, chain 1 of 2): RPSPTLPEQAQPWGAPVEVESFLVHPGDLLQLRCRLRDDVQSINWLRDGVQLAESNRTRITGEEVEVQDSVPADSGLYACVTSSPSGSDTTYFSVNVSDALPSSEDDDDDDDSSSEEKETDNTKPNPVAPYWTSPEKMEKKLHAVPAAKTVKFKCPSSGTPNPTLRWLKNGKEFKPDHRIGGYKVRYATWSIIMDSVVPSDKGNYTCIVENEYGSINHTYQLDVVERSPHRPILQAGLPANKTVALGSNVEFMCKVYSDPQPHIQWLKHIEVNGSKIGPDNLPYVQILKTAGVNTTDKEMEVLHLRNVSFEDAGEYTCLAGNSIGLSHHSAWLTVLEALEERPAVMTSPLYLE
Chain of complex of FGFR1c and β-Klotho (recombinant proteins) (Q86Z14 53-996, chain 2 of 2, further chain): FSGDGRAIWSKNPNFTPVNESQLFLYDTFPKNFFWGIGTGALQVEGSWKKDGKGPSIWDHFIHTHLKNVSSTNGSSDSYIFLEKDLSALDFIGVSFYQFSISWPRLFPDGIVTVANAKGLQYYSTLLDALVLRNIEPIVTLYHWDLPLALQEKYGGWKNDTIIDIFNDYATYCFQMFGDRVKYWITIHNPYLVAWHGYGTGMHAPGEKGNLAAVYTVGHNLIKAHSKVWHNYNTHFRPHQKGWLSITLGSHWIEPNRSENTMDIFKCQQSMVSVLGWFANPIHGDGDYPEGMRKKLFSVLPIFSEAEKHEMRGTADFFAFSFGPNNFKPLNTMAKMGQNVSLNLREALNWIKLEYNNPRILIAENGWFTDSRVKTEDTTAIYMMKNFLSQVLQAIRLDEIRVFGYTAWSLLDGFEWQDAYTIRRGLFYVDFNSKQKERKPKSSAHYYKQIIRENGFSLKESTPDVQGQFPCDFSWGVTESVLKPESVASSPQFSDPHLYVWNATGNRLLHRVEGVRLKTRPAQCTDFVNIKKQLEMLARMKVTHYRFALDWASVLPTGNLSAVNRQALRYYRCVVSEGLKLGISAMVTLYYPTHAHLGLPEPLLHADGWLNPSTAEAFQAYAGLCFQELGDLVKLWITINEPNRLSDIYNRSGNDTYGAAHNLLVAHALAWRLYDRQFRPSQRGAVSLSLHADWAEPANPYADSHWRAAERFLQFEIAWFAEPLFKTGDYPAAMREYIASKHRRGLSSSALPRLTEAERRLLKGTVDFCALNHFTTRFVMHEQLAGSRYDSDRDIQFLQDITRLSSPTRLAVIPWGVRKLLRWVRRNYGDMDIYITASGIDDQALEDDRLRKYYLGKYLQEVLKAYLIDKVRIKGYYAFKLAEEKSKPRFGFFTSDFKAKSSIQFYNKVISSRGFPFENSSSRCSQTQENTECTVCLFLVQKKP

For the substance “human FGF21 (from UniProt Q9NSA1 29-209)”, the IC50 stood at 2.6 nM.

The IC50 is the concentration at which inhibition is half-maximal.
